{"source": "patent US12338277", "experiment_in_all_cases": "cell-based or functional assay", "key": {"[1]": {"target": "HIV-1 envelope of pseudovirus T257-31 (HIV-1)"}, "[2]": {"target": "HIV-1 envelope spike of pseudovirus SC422661.8 (HIV-1)"}, "[3]": {"target": "HIV-1 Env of pseudovirus 6240_08_TA5_4622 (HIV-1)"}, "[4]": {"target": "HIV-1 Env of pseudovirus 6535.3 (HIV-1)"}, "[5]": {"target": "HIV-1 Env of pseudovirus QH0692.42 (HIV-1)"}, "[6]": {"target": "HIV-1 envelope of pseudovirus QH0692.42 (HIV-1)"}, "[7]": {"target": "HIV-1 envelope of pseudovirus Ce704809221_1B3 (HIV-1)"}, "[8]": {"target": "HIV-1 envelope of pseudovirus Q842.d12 (HIV-1)"}, "[9]": {"target": "HIV-1 Env of pseudovirus 6540.v4.c1 (HIV-1)"}, "[10]": {"target": "HIV-1 envelope of pseudovirus 191084 B7-19 (HIV-1)"}, "[11]": {"target": "HIV-1 Env of pseudovirus CNE58 (HIV-1)"}, "[12]": {"target": "HIV-1 envelope of pseudovirus ZM197M.PB7 (HIV-1)"}, "[13]": {"target": "HIV-1 envelope of pseudovirus X1193_c1 (HIV-1)"}, "[14]": {"target": "HIV-1 Env of pseudovirus BJOX028000.10.3 (HIV-1)"}, "[15]": {"target": "HIV-1 Env of pseudovirus 3365.v2.c2 (HIV-1)"}, "[16]": {"target": "HIV-1 Env of pseudovirus REJO4541.67 (HIV-1)"}, "[17]": {"target": "HIV-1 envelope of pseudovirus C1080.c03 (HIV-1)"}, "[18]": {"target": "HIV-1 envelope of pseudovirus C2101.c01 (HIV-1)"}, "[19]": {"target": "HIV-1 envelope of pseudovirus R2184.c04 (HIV-1)"}, "[20]": {"target": "HIV-1 envelope of pseudovirus 1054_07_TC4_1499 (HIV-1)"}, "[21]": {"target": "HIV-1 envelope of pseudovirus 6540.v4.c1 (HIV-1)"}, "[22]": {"target": "HIV-1 envelope of pseudovirus BJOX028000.10.3 (HIV-1)"}, "[23]": {"target": "HIV-1 envelope of pseudovirus 3016.v5.c45 (HIV-1)"}, "[24]": {"target": "HIV-1 envelope of pseudovirus Q451.e2 (HIV-1)"}, "[25]": {"target": "HIV-1 envelope of pseudovirus BJOX025000.01.1 (HIV-1)"}, "[26]": {"target": "HIV-1 Env of pseudovirus CAAN5342.A2 (HIV-1)"}, "[27]": {"target": "HIV-1 Env of pseudovirus X2131_C1_85 (HIV-1)"}, "[28]": {"target": "HIV-1 Env of pseudovirus 6480.v4.c25 (HIV-1)"}, "[29]": {"target": "HIV-1 Env of pseudovirus 928-28 (HIV-1)"}, "[30]": {"target": "HIV-1 envelope of pseudovirus C3347.c11 (HIV-1)"}, "[31]": {"target": "HIV-1 envelope of pseudovirus 191821_E6_1 (HIV-1)"}, "[32]": {"target": "HIV-1 envelope of pseudovirus AC10.0.29 (HIV-1)"}, "[33]": {"target": "HIV-1 envelope of pseudovirus C4118.c09 (HIV-1)"}, "[34]": {"target": "HIV-1 envelope of pseudovirus ZM109F.PB4 (HIV-1)"}, "[35]": {"target": "HIV-1 envelope of pseudovirus RHPA4259.7 (HIV-1)"}, "[36]": {"target": "HIV-1 Env of pseudovirus Du172.17 (HIV-1)"}, "[37]": {"target": "HIV-1 envelope of pseudovirus Q259.d2.17 (HIV-1)"}, "[38]": {"target": "HIV-1 envelope of pseudovirus 1394C9G1(Rev-) (HIV-1)"}, "[39]": {"target": "HIV-1 Env of pseudovirus CNE20 (HIV-1)"}, "[40]": {"target": "HIV-1 Env of pseudovirus 6041.v3.c23 (HIV-1)"}, "[41]": {"target": "HIV-1 Env of pseudovirus C4118.c09 (HIV-1)"}, "[42]": {"target": "HIV-1 envelope spike of pseudovirus PVO.4 (HIV-1)"}, "[43]": {"target": "HIV-1 envelope of pseudovirus Ce1086_B2 (HIV-1)"}, "[44]": {"target": "HIV-1 envelope of pseudovirus Ce1172_H1 (HIV-1)"}, "[45]": {"target": "HIV-1 Env of pseudovirus 246F C1G (HIV-1)"}, "[46]": {"target": "HIV-1 envelope of pseudovirus 6480.v4.c25 (HIV-1)"}, "[47]": {"target": "HIV-1 envelope of pseudovirus REJO4541.67 (HIV-1)"}, "[48]": {"target": "HIV-1 envelope of pseudovirus Du156.12 (HIV-1)"}, "[49]": {"target": "HIV-1 Env of pseudovirus 6545.v4.c1 (HIV-1)"}, "[50]": {"target": "HIV-1 Env of pseudovirus ZM249M.PL1 (HIV-1)"}}}
{"substance": "10-996 (antibody)", "values": [{"measurement": "IC50 (TZM-bl neutralization)", "setting": "[1]", "result": "> 50", "unit": "µg/mL"}, {"measurement": "IC50 (TZM-bl neutralization assay)", "setting": "[2]", "result": 0.255, "unit": "µg/mL"}, {"measurement": "IC80 (TZM-bl neutralization assay)", "setting": "[2]", "result": 0.845, "unit": "µg/mL"}, {"measurement": "IC80 (TZM-bl neutralization)", "setting": "[3]", "result": 0.348, "unit": "µg/mL"}, {"measurement": "IC80 (TZM-bl neutralization)", "setting": "[4]", "result": 0.046, "unit": "µg/mL"}, {"measurement": "IC80 (TZM-bl neutralization)", "setting": "[5]", "result": 1.85, "unit": "µg/mL"}, {"measurement": "IC50 (TZM-bl neutralization)", "setting": "[6]", "result": 0.396, "unit": "µg/mL"}, {"measurement": "IC50 (TZM-bl neutralization)", "setting": "[7]", "result": 0.243, "unit": "µg/mL"}, {"measurement": "IC50 (TZM-bl neutralization)", "setting": "[8]", "result": "> 50", "unit": "µg/mL"}, {"measurement": "IC80 (TZM-bl neutralization)", "setting": "[9]", "result": "> 50", "unit": "µg/mL"}, {"measurement": "IC50 (TZM-bl neutralization)", "setting": "[10]", "result": 0.057, "unit": "µg/mL"}, {"measurement": "IC80 (TZM-bl neutralization)", "setting": "[11]", "result": 2.22, "unit": "µg/mL"}, {"measurement": "IC50 (TZM-bl neutralization)", "setting": "[12]", "result": "> 50", "unit": "µg/mL"}, {"measurement": "IC50 (TZM-bl neutralization)", "setting": "[13]", "result": 0.144, "unit": "µg/mL"}, {"measurement": "IC80 (TZM-bl neutralization)", "setting": "[14]", "result": "> 50", "unit": "µg/mL"}, {"measurement": "IC80 (TZM-bl neutralization)", "setting": "[15]", "result": 1.38, "unit": "µg/mL"}, {"measurement": "IC80 (TZM-bl neutralization)", "setting": "[16]", "result": "> 50", "unit": "µg/mL"}, {"measurement": "IC50 (TZM-bl neutralization)", "setting": "[17]", "result": "> 50", "unit": "µg/mL"}, {"measurement": "IC50 (TZM-bl neutralization)", "setting": "[18]", "result": "> 50", "unit": "µg/mL"}, {"measurement": "IC50 (TZM-bl neutralization)", "setting": "[19]", "result": "> 50", "unit": "µg/mL"}, {"measurement": "IC50 (TZM-bl neutralization)", "setting": "[20]", "result": 0.26, "unit": "µg/mL"}, {"measurement": "IC50 (TZM-bl neutralization)", "setting": "[21]", "result": "> 50", "unit": "µg/mL"}, {"measurement": "IC50 (TZM-bl neutralization)", "setting": "[22]", "result": "> 50", "unit": "µg/mL"}, {"measurement": "IC50 (TZM-bl neutralization)", "setting": "[23]", "result": "> 50", "unit": "µg/mL"}, {"measurement": "IC50 (TZM-bl neutralization)", "setting": "[24]", "result": "> 50", "unit": "µg/mL"}, {"measurement": "IC50 (TZM-bl neutralization)", "setting": "[25]", "result": "> 50", "unit": "µg/mL"}, {"measurement": "IC80 (TZM-bl neutralization)", "setting": "[26]", "result": 0.079, "unit": "µg/mL"}, {"measurement": "IC80 (TZM-bl neutralization)", "setting": "[27]", "result": 0.085, "unit": "µg/mL"}, {"measurement": "IC80 (TZM-bl neutralization)", "setting": "[28]", "result": 0.049, "unit": "µg/mL"}, {"measurement": "IC80 (TZM-bl neutralization)", "setting": "[29]", "result": 7.15, "unit": "µg/mL"}, {"measurement": "IC50 (TZM-bl neutralization)", "setting": "[30]", "result": "> 50", "unit": "µg/mL"}, {"measurement": "IC50 (TZM-bl neutralization)", "setting": "[31]", "result": "> 50", "unit": "µg/mL"}, {"measurement": "IC50 (TZM-bl neutralization)", "setting": "[32]", "result": 0.067, "unit": "µg/mL"}, {"measurement": "IC50 (TZM-bl neutralization)", "setting": "[33]", "result": "> 50", "unit": "µg/mL"}, {"measurement": "IC50 (TZM-bl neutralization)", "setting": "[34]", "result": "> 50", "unit": "µg/mL"}, {"measurement": "IC50 (TZM-bl neutralization)", "setting": "[35]", "result": 0.034, "unit": "µg/mL"}, {"measurement": "IC80 (TZM-bl neutralization)", "setting": "[36]", "result": 0.607, "unit": "µg/mL"}, {"measurement": "IC50 (TZM-bl neutralization)", "setting": "[37]", "result": "> 50", "unit": "µg/mL"}, {"measurement": "IC50 (TZM-bl neutralization)", "setting": "[38]", "result": 0.086, "unit": "µg/mL"}, {"measurement": "IC80 (TZM-bl neutralization)", "setting": "[39]", "result": "< 0.001", "unit": "µg/mL"}, {"measurement": "IC80 (TZM-bl neutralization)", "setting": "[40]", "result": "> 50", "unit": "µg/mL"}, {"measurement": "IC80 (TZM-bl neutralization)", "setting": "[41]", "result": "> 50", "unit": "µg/mL"}, {"measurement": "IC50 (TZM-bl neutralization assay)", "setting": "[42]", "result": 0.211, "unit": "µg/mL"}, {"measurement": "IC80 (TZM-bl neutralization assay)", "setting": "[42]", "result": 1.72, "unit": "µg/mL"}, {"measurement": "IC50 (TZM-bl neutralization)", "setting": "[43]", "result": "> 50", "unit": "µg/mL"}, {"measurement": "IC50 (TZM-bl neutralization)", "setting": "[44]", "result": 0.058, "unit": "µg/mL"}, {"measurement": "IC80 (TZM-bl neutralization)", "setting": "[45]", "result": 0.27, "unit": "µg/mL"}, {"measurement": "IC50 (TZM-bl neutralization)", "setting": "[46]", "result": 0.01, "unit": "µg/mL"}, {"measurement": "IC50 (TZM-bl neutralization)", "setting": "[47]", "result": "> 50", "unit": "µg/mL"}, {"measurement": "IC50 (TZM-bl neutralization)", "setting": "[48]", "result": 0.018, "unit": "µg/mL"}, {"measurement": "IC80 (TZM-bl neutralization)", "setting": "[49]", "result": "> 50", "unit": "µg/mL"}, {"measurement": "IC80 (TZM-bl neutralization)", "setting": "[50]", "result": "> 50", "unit": "µg/mL"}]}
